Data: patent US20190225669A1 (ACCELERON PHARMA, published 2019)

How the values were obtained:
[1] = target: T1, GDF6 (UniProt Q6KF10 336-455, limits assumed); assay: Biacore SPR; kinetics indeterminate (transient)
T1 construct: also called BMP13
T1 sequence (looked up): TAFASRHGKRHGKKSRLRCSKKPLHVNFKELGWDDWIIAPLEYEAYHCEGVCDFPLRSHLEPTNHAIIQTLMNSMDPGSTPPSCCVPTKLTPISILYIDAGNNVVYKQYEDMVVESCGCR
Protocol: (§1) Ligands were injected and allowed to flow over the captured receptor protein.

[2] = target: T2, BMP9 (UniProt Q9UK05 320-429); assay: Biacore SPR
T2 construct: also called GDF2
T2 sequence (looked up): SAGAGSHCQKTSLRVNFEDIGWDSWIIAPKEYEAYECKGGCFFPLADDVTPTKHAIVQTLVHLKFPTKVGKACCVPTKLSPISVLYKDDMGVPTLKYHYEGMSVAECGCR
Protocol: as §1

[3] = target: T3, BMP5 (UniProt P22003 317-454, limits assumed); assay: Biacore SPR
T3 sequence (looked up): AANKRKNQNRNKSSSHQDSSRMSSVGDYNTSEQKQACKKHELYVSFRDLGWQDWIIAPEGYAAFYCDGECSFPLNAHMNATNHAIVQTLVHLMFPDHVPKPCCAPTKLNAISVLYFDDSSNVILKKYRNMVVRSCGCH
Protocol: as §1

[4] = target: T4, activin A (UniProt P08476 311-426); assay: Biacore SPR
T4 sequence (looked up): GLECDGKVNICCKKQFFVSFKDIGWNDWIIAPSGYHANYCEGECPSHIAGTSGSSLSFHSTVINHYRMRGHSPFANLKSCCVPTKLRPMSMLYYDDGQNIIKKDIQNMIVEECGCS
Protocol: as §1

[5] = target: T5, BMP7 (UniProt P18075 293-431); assay: Biacore SPR
T5 sequence (looked up): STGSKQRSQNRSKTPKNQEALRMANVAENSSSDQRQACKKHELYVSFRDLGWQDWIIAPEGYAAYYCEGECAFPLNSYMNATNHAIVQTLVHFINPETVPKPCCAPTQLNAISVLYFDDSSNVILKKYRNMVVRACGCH
Protocol: as §1

[6] = target: T6, BMP10 (UniProt O95393 317-424); assay: Biacore SPR
T6 sequence (looked up): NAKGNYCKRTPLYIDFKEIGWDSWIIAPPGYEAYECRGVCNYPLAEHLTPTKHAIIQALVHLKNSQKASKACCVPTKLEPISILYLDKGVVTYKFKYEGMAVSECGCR
Protocol: as §1

[7] = target: T7, activin B (UniProt P09529 293-407); assay: Biacore SPR
T7 sequence (looked up): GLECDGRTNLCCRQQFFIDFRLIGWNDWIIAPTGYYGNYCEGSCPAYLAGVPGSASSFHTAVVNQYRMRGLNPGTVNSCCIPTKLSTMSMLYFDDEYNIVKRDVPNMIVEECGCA
Protocol: as §1

[8] = target: T8, GDF5 (UniProt P43026 382-501); assay: Biacore SPR
T8 construct: also called BMP14
T8 sequence (looked up): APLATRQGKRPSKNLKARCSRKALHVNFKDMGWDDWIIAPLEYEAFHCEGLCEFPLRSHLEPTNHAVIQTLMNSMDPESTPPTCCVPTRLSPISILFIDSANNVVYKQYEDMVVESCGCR
Protocol: as §1

[9] = target: T9, GDF3 (UniProt Q9NR23 251-364); assay: Biacore SPR
T9 sequence (looked up): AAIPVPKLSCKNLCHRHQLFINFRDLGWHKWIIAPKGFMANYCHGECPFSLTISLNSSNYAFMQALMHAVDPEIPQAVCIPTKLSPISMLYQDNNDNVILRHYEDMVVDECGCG
Protocol: as §1

[10] = target: T10, GDF8 (UniProt O14793 267-375); assay: Biacore SPR
T10 construct: also called myostatin
T10 sequence (looked up): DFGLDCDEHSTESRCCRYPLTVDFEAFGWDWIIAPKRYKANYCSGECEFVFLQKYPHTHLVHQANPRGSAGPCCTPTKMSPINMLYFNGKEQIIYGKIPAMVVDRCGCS
Protocol: as §1

[11] = target: T11, GDF11 (UniProt O95390 299-407); assay: Biacore SPR
T11 construct: also called BMP11
T11 sequence (looked up): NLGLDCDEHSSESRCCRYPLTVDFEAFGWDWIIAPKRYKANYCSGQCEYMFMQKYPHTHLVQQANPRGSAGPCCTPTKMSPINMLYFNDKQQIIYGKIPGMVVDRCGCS
Protocol: as §1

B1: ActRIIB-Fc:ALK2-Fc heterodimer (Fc fusion)
chain 1: GRGEAETRECIYYNANWELERTNQSGLERCEGEQDKRLHCYASWRNSSGTIELVKKGCWLDDFNCYDRQECVATEENPQVYFCCCEGNFCNERFTHLPEAGGPEVTYEPPPTAPTGGGTHTCPPCPAPELLGGPSVFLFPPKPKDTLMISRTPEVTCVVVDVSHEDPEVKFNWYVDGVEVHNAKTKPREEQYNSTYRVVSVLTVLHQDWLNGKEYKCKVSNKALPAPIEKTISKAKGQPREPQVYTLPPSRKEMTKNQVSLTCLVKGFYPSDIAVEWESNGQPENNYKTTPPVLKSDGSFFLYSKLTVDKSRWQQGNVFSCSVMHEALHNHYTQKSLSLSPGK
chain 2: MEDEKPKVNPKLYMCVCEGLSCGNEDHCEGQQCFSSLSINDGFHVYQKGCFQVYEQGKMTCKTPPSPGQAVECCQGDWCNRNITAQLPTKGKSFPGTQNFHLETGGGTHTCPPCPAPELLGGPSVFLFPPKPKDTLMISRTPEVTCVVVDVSHEDPEVKFNWYVDGVEVHNAKTKPREEQYNSTYRVVSVLTVLHQDWLNGKEYKCKVSNKALPAPIEKTISKAKGQPREPQVYTLPPSREEMTKNQVSLTCLVKGFYPSDIAVEWESNGQPENNYDTTPPVLDSDGSFFLYSDLTVDKSRWQQGNVFSCSVMHEALHNHYTQKSLSLSPG
notes: C-terminal Lys optional; also called ActRIIB-Fc:ALK2-Fc heterodimeric complex
Kd [1]: > 240 nM
Kd [2]: 0.28 nM
koff [2]: 0.00089 s⁻¹
kon [2]: 3.2e+06 M⁻¹ s⁻¹
Kd [3]: 1.2 nM
koff [3]: 0.0014 s⁻¹
kon [3]: 1.2e+06 M⁻¹ s⁻¹
Kd [4]: 0.076 nM
koff [4]: 0.0026 s⁻¹
kon [4]: 3.4e+07 M⁻¹ s⁻¹
Kd [5]: 0.17 nM
koff [5]: 0.0026 s⁻¹
kon [5]: 1.5e+07 M⁻¹ s⁻¹
Kd [6]: 0.053 nM
koff [6]: 0.0029 s⁻¹
kon [6]: 5.5e+07 M⁻¹ s⁻¹
Kd [7]: 0.047 nM
koff [7]: 0.00015 s⁻¹
kon [7]: 3.2e+06 M⁻¹ s⁻¹
Kd [8]: 5 nM
koff [8]: 0.0044 s⁻¹
kon [8]: 880000 M⁻¹ s⁻¹
Kd [9]: 6.5 nM
koff [9]: 0.012 s⁻¹
kon [9]: 1.8e+06 M⁻¹ s⁻¹
Kd [10]: 0.36 nM
koff [10]: 0.00073 s⁻¹
kon [10]: 2.1e+06 M⁻¹ s⁻¹
Kd [11]: 0.6 nM
koff [11]: 0.00093 s⁻¹
kon [11]: 1.6e+06 M⁻¹ s⁻¹
